Assays:
[1] = biological target: CXCR3-A C-terminally fused with SmBiT (human) (UniProt P49682)
[2] = biological target: untagged CXCR3-A (human) (UniProt P49682)
[3] = biological target: CXCR3-B C-terminally fused with SmBiT (human) (UniProt P49682)
[4] = biological target: CXCR3-A C-terminally fused with SmBiT (human) (UniProt P49682); remark: listed apart in the source
[5] = biological target: CXCR3-B -40, C-terminally fused with SmBiT (human) (UniProt P49682)
[6] = biological target: CXCR3-B -30, C-terminally fused with SmBiT (human) (UniProt P49682)
[7] = biological target: CXCR3-B C-terminally fused with SmBiT (human) (UniProt P49682); remark: listed apart in the source

Molecule	Table 1: miniGi recruitment to CXCR3-A, EC50 of the chemokine (NanoBiT-based assay) [1] [nM]	Table 1: miniGq recruitment to CXCR3-A, EC50 of the chemokine (NanoBiT-based assay) [1] [nM]	Table 1: β-arrestin-1 recruitment to CXCR3-A, EC50 of the chemokine (NanoBiT-based assay) [1] [nM]	Table 1: β-arrestin-2 recruitment to CXCR3-A, EC50 of the chemokine (NanoBiT-based assay) [1] [nM]	Table 2: β-arrestin-1 recruitment to CXCR3-A, EC50 of the chemokine (NanoBiT-based assay, HEK293T) [1] [nM]	Table 1: Gi2 dissociation in CXCR3-A-expressing cells, EC50 of the chemokine (NanoBRET G protein activity sensor) [2] [nM]	Table 1: Go1 dissociation in CXCR3-A-expressing cells, EC50 of the chemokine (NanoBRET G protein activity sensor) [2] [nM]	Table 1: Gq dissociation in CXCR3-A-expressing cells, EC50 of the chemokine (NanoBRET G protein activity sensor) [2] [nM]	Table 1: cAMP, EC50 of the chemokine for the reduction of intracellular cAMP in CXCR3-A-expressing cells (GloSensor) [2] [nM]	Table 1: β-arrestin-2 recruitment to CXCR3-B, EC50 of the chemokine (NanoBiT-based assay) [3] [nM]	Table 3: miniGi recruitment to CXCR3-A, EC50 of CXCL11 (NanoBiT-based assay, HEK293T) [4] [nM]	Table 3: β-arrestin-1 recruitment to CXCR3-A, EC50 of CXCL11 (NanoBiT-based assay) [4] [nM]	Table 3: miniGi recruitment to CXCR3-B -40, EC50 of CXCL11 (NanoBiT-based assay, HEK293T) [5] [nM]	Table 3: miniGi recruitment to CXCR3-B -30, EC50 of CXCL11 (NanoBiT-based assay, HEK293T) [6] [nM]	Table 3: β-arrestin-1 recruitment to CXCR3-B, EC50 of CXCL11 (NanoBiT-based assay) [7] [nM]	Table 1: β-arrestin-1 recruitment to CXCR3-B, EC50 of the chemokine (NanoBiT-based assay) [3] [nM]	Table 2: β-arrestin-1 recruitment to CXCR3-B, EC50 of the chemokine (NanoBiT-based assay, HEK293T) [3] [nM]
CXCL10 (from UniProt P02778 22-98) (ligand)	18.2	22.2	17.8	2.9	10.7	0.9	1.9	2.3	14.1	59.2							
CXCL11 (ligand) FPMFKRGRCLCIGPGVKAVKVADIEKASIMYPSNNCDKIEVIITLKENKGQRCLNPKSKQARLIIKKVERKNF	12.4	25.9	15.8	2.9	9.6	1.2	1.8	0.4	6.3	12.4	18.2	6.7	32.7	27.2	23.9	49.4	51.6
CXCL9 (ligand) TPVVRKGRCSCISTNQGTIHLQSLKDLKQFAPSPSCEKIEIIATLKNGVQTCLNPDSADVKELIKKWEKQVSQKKKQKNGKKHQKKKVLKVRKSQRSRQKKTT				16000		19.9	77.8	56	21.9	100000							
CXCL11P2G (ligand) FGMFKRGRCLCIGPGVKAVKVADIEKASIMYPSNNCDKIEVIITLKENKGQRCLNPKSKQARLIIKKVERKNF					14.8												153
